Reference: paper PMC6277958, “Crystal structure of the Agrobacterium tumefaciens type VI effector–immunity complex” (Acta Crystallographica. Section F, Structural Biology …, 2018)

Biological target: the molecule itself
Assay: SEC; AtTai4 alone in solution; conditions not told (purification used a HiLoad Superdex 75 column)

B1: T6SS amidase immunity protein 4 (Tai4) from Agrobacterium tumefaciens, residues 26–129, expressed alone from pCold-GST (natural protein, UniProt A9CGG9 26-129, looked up)
chain: AERTWIFSGAELKQAIEGKLAPDVSDPEMRRLVSVAKSSAYIAGVADLTSGSDWCGAGAVAPHELTDRIYTYLGDMPAEKLDEQAATLVREALKVSFPCEQKSN
notes: codon-optimized synthetic gene; His6-GST tag removed with Turbo3C protease; Disulfide bond between Cys80 and Cys124 in each protomer; also called AtTai4; ATU4346; source: E. coli Rosetta 2 (DE3), purified (Ni-NTA, Resource Q, HiLoad Superdex 75); not shown: His6, N-terminal, cleaved; GST, N-terminal, cleaved
**Q.** Which “stoichiometry N” value does the source give for B1 here?
**A.** Its value is 2.
